Experimental data as given in paper PMC11804868.

Assays:
[1] = biological target: TylG5 TE wild type (thioesterase domain of the tylosin polyketide synthase TylG5) (Streptomyces fradiae); assay: SEC
[2] = biological target: DEBSIII TE wild type (thioesterase domain of the erythromycin polyketide synthase DEBSIII) (Saccharopolyspora erythrea); assay: SEC

stoichiometry N [1]	stoichiometry N [2]	Substance
2		TylG5 TE wild type (thioesterase domain of the tylosin polyketide synthase TylG5) (domain or fragment)
	2	DEBSIII TE wild type (thioesterase domain of the erythromycin polyketide synthase DEBSIII) (domain or fragment)
